Values quoted from earlier work, collected in publication PMC10742151.
Like-named read-outs stand apart in the source and are kept apart here.

What was measured:
[1] = target: CA125 (ovarian cancer biomarker antigen) (UniProt Q8WXI7); details: AFM chip (DSP-activated APTES mica) with immobilized aptamer incubated in CA125 solution, then washed with 0.01% Emulgen 913; buffer, salt, pH and temperature …
[2] = target: CA125 (ovarian cancer biomarker antigen) (UniProt Q8WXI7); details: AFM chip (DSP-activated APTES mica) with immobilized aptamer incubated in CA125 solution, then washed with 0.01% Emulgen 913; buffer, salt, pH and temperature …; remark: listed apart in the source

Row | Substance | Kd [1] [nM] | Kd [2] [nM]
1 | TAGGGAAGAGAAGGACATATGATGATCAACAACACAAGGGGGGGGGTATCTAGTTGACTAGTACATGACCACTTGA [apta#2 (apta#2.43)] | 239 | –
2 | TAGGGAAGAGAAGGACATATGATTTTAGGGAAGAGAAGGACTTTTATGCCGCCTTGACTAGTACATGACCACTTGA [apta#1 (apta#2.26)] | 166 | –
3 | apta#3 (ATW0055, BasePair Biotechnologies) | – | 33.8
